In this assay the target is T1, purified BCMA (CD269) extracellular domain (human, UniProt Q02223 4-54).
T1 construct: also called BCMA extracellular domain; extracellular domain of CD269
T1 sequence: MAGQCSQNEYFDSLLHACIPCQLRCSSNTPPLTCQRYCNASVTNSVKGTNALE
The experiment in a line: co-crystallisation, crystal structure of the complex.

One molecule from patent publication US20190307797A1 (MAX DELBR CK CENTRUM F R MOLEKULARE MEDIZIN IN DER …, published 2019) can be followed below.

B1: Fab fragment prepared from the mouse or chimeric antibody from which the CAR was derived (chimeric antibody J22.9-xi) (Fab, V domains shown)
VH: QVQLQQSGGGLVQPGGSLKLSCAASGIDFSRYWMSWVRRAPGKGLEWIGEINPDSSTINYAPSLKDKFIISRDNAKNTLYLQMSKVRSEDTALYYCASLYYDYGDAMDYWGQGTSVTVSS
VL: DIVMTQSQRFMTTSVGDRVSVTCKASQSVDSNVAWYQQKPRQSPKALIFSASLRFSGVPARFTGSGSGTDFTLTISNLQSEDLAEYFCQQYNNYPLTFGAGTKLELKR
notes: also called J22.9-xi Fab; Fab fragments prepared from mouse or chimeric antibodies
B1: the binding result is recorded as “binds”.
